This passage reports binding signal results from patent publication US20140255304, “TDP-43 SPECIFIC BINDING MOLECULES” (BIOGEN IDEC INTERNALTIONAL NEUROSCIENCE GMBH, published 2014).

The data set addresses TDP-43 full length (residues 1-414) (Homo sapiens, UniProt Q13148 SEQ:1-414). As to the kind of experiment: FP; at least 30-fold higher affinity than for U12 control; 40 mM HEPES, 0.5 M KCl, 0.4 M arginine, pH 7.4, 25 C. The following applies: tags: N-terminal 6xHis-SUMO, expressed in E. coli BL21(DE3) Star; label: 5' TYE fluorophore. As to the method: Equilibrium binding affinities of TDP-43 constructs for RNA were determined using fluorescence polarization. 5′TYETM fluorophore labeled RNA substrates, specific RNA (TYETM-[…]) (SEQ ID NO: 312) and RNA control (TYETM-[…]) (SEQ ID NO: 313) (integrated DNA Technologies), were incubated at a concentration of 5 nM for 30 min at 25° C. with TDP-43 (final concentrations 0 to 20 μM) in incubation buffer as indicated. Fluorescence polarization was measured with the plate reader fluorometer Envision (PerkinElmer) at each concentration of TDP-43 in a 96 well plate format with an excitation at 645 nm and emission at 665. Kds were calculated using the quadratic equation for tight binding (Morrison equation) using Sigmaplot (Systat Software Inc.). […] Stoichiometries were calculated by measuring the intercept of two straight lines, one fit using data points of the partially bound state, and the other using data points of the fully bound state.
The recombinant full-length TDP-43 was monomeric by sedimentation analysis (FIG. 8C) in buffer containing 400 mM arginine.

Chain of TDP-43 full length (residues 1-414) (Q13148 whole entry, the tested form may be a part): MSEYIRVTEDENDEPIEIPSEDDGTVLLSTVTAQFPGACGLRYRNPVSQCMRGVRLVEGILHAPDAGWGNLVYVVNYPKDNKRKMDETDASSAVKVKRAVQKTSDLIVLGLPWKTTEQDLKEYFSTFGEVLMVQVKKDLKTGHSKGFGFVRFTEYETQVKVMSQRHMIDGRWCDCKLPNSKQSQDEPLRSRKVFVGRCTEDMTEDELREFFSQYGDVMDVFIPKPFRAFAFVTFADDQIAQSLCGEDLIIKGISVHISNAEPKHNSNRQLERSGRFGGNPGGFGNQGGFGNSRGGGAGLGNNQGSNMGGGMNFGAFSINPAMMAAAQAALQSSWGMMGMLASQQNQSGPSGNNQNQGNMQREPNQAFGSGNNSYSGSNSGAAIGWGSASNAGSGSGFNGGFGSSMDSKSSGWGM

In the case of UGUGUGUGUGUG (ssRNA) [(UG)6 specific RNA], the binding signal was no less than 30 fold.
